Laboratory results as given in article PMC11589706, “Cryo-EM structure of PML RBCC dimer reveals CC-mediated octopus-like nuclear body assembly mechanism” (Cell Discovery, 2024).

B1: PML_(46–362) (domain or fragment, human, UniProt P29590 46-362, looked up)
chain: PASEEEFQFLRCQQCQAEAKCPKLLPCLHTLCSGCLEASGMQCPICQAPWPLGADTPALDNVFFESLQRRLSVYRQIVDAQAVCTRCKESADFWCFECEQLLCAKCFEAHQWFLKHEARPLAELRNQSVREFLDGTRKTNNIFCSNPNHRTPTLTSIYCRGCSKPLCCSCALLDSSHSELKCDISAEIQQRQEELDAMTQALQEQDSAFGAVHAQMHAAVGQLGRARAETEELIRERVRQVVAHVRAQERELLEAVDARYQRDYEEMASRLGRLDAVLQRIRTGSALVQRMKCYASDQEVLDMHGFLRQALCRLRQE
notes: PML (TRIM19), human, residues 46-362, the complete RBCC domain; also called truncated protein PML_(46–362); complete RBCC domain; source: E. coli BL21(DE3), purified; not shown: MBP, N-terminal, cleaved
B2: MBP-PML_(46–362) (domain or fragment, human, UniProt P29590 46-362, looked up)
chain: B1 chain
notes: PML (TRIM19), human, residues 46-362; source: E. coli BL21(DE3), purified; not shown: MBP, N-terminal, kept
B3: MBP-PML_(46–391) (domain or fragment, human, UniProt P29590 46-391, looked up)
chain: PASEEEFQFLRCQQCQAEAKCPKLLPCLHTLCSGCLEASGMQCPICQAPWPLGADTPALDNVFFESLQRRLSVYRQIVDAQAVCTRCKESADFWCFECEQLLCAKCFEAHQWFLKHEARPLAELRNQSVREFLDGTRKTNNIFCSNPNHRTPTLTSIYCRGCSKPLCCSCALLDSSHSELKCDISAEIQQRQEELDAMTQALQEQDSAFGAVHAQMHAAVGQLGRARAETEELIRERVRQVVAHVRAQERELLEAVDARYQRDYEEMASRLGRLDAVLQRIRTGSALVQRMKCYASDQEVLDMHGFLRQALCRLRQEEPQSLQAAVRTDGFDEFKVRLQDLSSCIT
notes: source: E. coli BL21(DE3), purified; not shown: MBP, N-terminal, kept
B4: MBP-PML_(46–256) (domain or fragment, human, UniProt P29590 46-256, looked up)
chain: PASEEEFQFLRCQQCQAEAKCPKLLPCLHTLCSGCLEASGMQCPICQAPWPLGADTPALDNVFFESLQRRLSVYRQIVDAQAVCTRCKESADFWCFECEQLLCAKCFEAHQWFLKHEARPLAELRNQSVREFLDGTRKTNNIFCSNPNHRTPTLTSIYCRGCSKPLCCSCALLDSSHSELKCDISAEIQQRQEELDAMTQALQEQDSAFGA
notes: Monomer and dimer fractions were separated by SEC; The cryo-EM model covers P46-S221; also called PML RBCC fragment; PML RBCC dimer; source: E. coli BL21(DE3), purified (amylose column, Superdex 200 Increase SEC); not shown: MBP, N-terminal, kept

Legend:
[1] = biological target: the molecule itself; assay: cross-linking; XL-MS: purified SEC fractions crosslinked with 2 mM BS3 at 4 °C for 2 h; trypsin digest, LC-MS/MS, pLink2; intra-subunit XLs of the monomer fraction subtracted from those of the dimer
[2] = biological target: the molecule itself; assay: SEC; analytical size exclusion on Superdex 200 Increase 10/300 GL in 20 mM HEPES, pH 7.4, 100 mM NaCl, 4% glycerol; all truncations N-terminally fused to MBP
[3] = biological target: the molecule itself; assay: cryo-EM structure; MBP-PML_(46–256) dimer fraction from SEC, ~3 mg/mL; non-tilt and 40°-tilt data; C2 symmetry imposed; 5.3 Å overall

Protein	binding result [2]	other results
B1		binding result [1]: binds
B2	binds	
B3	binds	
B4		stoichiometry N [3]: 2
